For assay [1], the target named is T1, extracellular segment of human PRLR protein with avi-(his)6 tag (hPRLR-ECD-avi-his) (human, UniProt P16471 25-234).
T1 construct: The assays say only 'monomeric human PRLR extracellular domain / ECD'; also called human PRLR extracellular domain; monomeric PRLR ECD
T1 sequence: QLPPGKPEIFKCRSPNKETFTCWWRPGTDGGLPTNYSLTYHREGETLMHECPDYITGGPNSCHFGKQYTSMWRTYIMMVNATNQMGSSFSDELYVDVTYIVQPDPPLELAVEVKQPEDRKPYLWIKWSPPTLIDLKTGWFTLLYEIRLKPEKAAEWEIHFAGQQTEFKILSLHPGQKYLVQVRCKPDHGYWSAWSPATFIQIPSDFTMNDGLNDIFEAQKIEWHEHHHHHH
Nature of the assay: BLI epitope binning on biotinylated human PRLR ECD, 100 nM each; competitor: P-PR-C07H-v; which axis is the first antibody is not stated.

For assay [2], the target named is T1, extracellular segment of human PRLR …. Nature of the assay: BLI, biotinylated monomeric PRLR ECD on streptavidin sensor, antibody 3.125-100 nM in solution, 1:1 fit. (In BLI a coated tip is dipped into the sample, and binding shifts an interference pattern.)
Assay [3] deals with T2, extracellular segment of the PRLR protein of cynomolgus monkey with avi-(his)6 tag (cynoPRLR-ECD-avi-his) (cynomolgus monkey).
T2 construct: The assays say only 'monomeric monkey PRLR extracellular domain / ECD'; also called cynomolgus monkey PRLR extracellular domain; Monkey PRLR
T2 chain: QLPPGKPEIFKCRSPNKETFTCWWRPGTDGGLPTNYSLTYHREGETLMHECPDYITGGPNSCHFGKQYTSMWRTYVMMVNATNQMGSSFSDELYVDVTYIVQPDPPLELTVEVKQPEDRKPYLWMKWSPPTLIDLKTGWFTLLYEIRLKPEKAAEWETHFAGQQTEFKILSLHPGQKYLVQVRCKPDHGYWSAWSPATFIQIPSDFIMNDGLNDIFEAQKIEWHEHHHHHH
The description is as above.

Assay [4] deals with T3, human PRLR expressed on cells (human, UniProt P16471 25-622).
T3 sequence: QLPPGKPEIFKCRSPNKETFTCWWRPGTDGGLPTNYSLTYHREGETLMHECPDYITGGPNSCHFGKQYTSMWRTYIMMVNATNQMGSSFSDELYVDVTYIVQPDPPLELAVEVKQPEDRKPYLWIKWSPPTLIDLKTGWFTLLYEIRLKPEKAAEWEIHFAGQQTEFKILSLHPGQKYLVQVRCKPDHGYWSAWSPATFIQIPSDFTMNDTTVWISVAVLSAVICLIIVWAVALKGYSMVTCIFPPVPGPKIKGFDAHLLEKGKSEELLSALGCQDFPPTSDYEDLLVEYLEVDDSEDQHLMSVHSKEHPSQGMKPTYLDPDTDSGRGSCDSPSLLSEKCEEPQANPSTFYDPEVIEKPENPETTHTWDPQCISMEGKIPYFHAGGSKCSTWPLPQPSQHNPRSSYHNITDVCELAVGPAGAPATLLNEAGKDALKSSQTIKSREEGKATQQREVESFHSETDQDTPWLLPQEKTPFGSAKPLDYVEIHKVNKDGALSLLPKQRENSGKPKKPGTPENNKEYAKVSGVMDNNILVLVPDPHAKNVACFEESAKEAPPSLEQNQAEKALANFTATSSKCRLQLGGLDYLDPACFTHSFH
Nature of the assay: cell-based or functional assay.

Assay [5] concerns the target T1, extracellular segment of human PRLR …. Nature of the assay: BLI epitope binning on biotinylated human PRLR ECD, 100 nM each; competitor: HP-PR01D12-v; which axis is the first antibody is not stated.
For assay [6] the target is unchanged. Briefly: BLI epitope binning on biotinylated human PRLR ECD, 100 nM each; competitor: P-PR-C05H-v2; which axis is the first antibody is not stated.
In assay [7] the target is T2, extracellular segment of the PRLR …. Briefly: ELISA, coated antigen 1 ug/mL. A general note: In an ELISA, binding on a coated surface is turned into a signal by an enzyme label.
The target in assay [8] is T4, recombinant mesothelin protein with the same tag.
T4 construct: Control antigen of the species-specific ELISA; also called Control protein
Nature of the assay: ELISA, coated antigen 1 ug/mL, antibody 10 ug/mL.

The target of assay [9] is T2, extracellular segment of the PRLR …. Nature of the assay: ELISA, coated antigen 1 ug/mL, antibody 10 ug/mL.

A value given as a limit tells only on which side of the number the result lay.

Broadly, the Kd is the concentration at which binding is half-saturated. The koff is the first-order rate constant of dissociation. The term kon denotes a measure of how fast the partners come together.

B1: HP-PR01D12-v (antibody, V domains shown)
VH: EVQLVESGGGLVQPGGSLRLSCAASGFTFSSFGMNWVRQAPGKGLEWVAYISSGSSIIYYADSVKGRFTISRDNSKNTLYLQMNSLRAEDTAVYYCTRFYGYIPFDYWGQGTLVTVSS
VL: DIQMTQSPSSLSASVGDRVTITCRASSSLIYLHWYQQKPGKAPKLWIYDTSKLASGVPSRFSGSGSGNDYTLTISSLQPEDFATYYCFQGSGYPLTFGQGTKVEIK
notes: also called Antibody No. 27; hHP-PR01D12-v
As to B1, the “ratio of the binding signal of the second antibody to the reference” value (“ratio” below) in assay [1] worked out at 31.8%; in assay [5], 14.4%; in assay [6] it was 9.2%. Besides, the Kd in assay [2] is 1.13 pM; in assay [3], under 1 pM. Besides, the koff came out at 4.88e-07 s⁻¹ in assay [2] and 3.43e-07 s⁻¹ in assay [3]. Further, the kon came out at 431000 M⁻¹ s⁻¹ in [2] and 453000 M⁻¹ s⁻¹ in assay [3]. The “Blocking percentage (%) of 100 nM antibody (STAT5 luciferase reporter)” value (“Blocking percentage (%)” for short) in assay [4] was found to be 46.7%.

B2: P-PR-C05H-v2 (antibody, V domains shown)
VH: EVQLVQSGAEVKKPGASVKVSCKASGFTFTTFWVHWVRQAPGQGLEWIGNIAPGSTSTNYAQKFQGRATLTVDTSISTAYMELSSLRSEDTAVYYCIRHSGNYFNAMDYWGQGTLVTVSS
VL: DIVMTQSPLSLPVTPGEPASISCRSSKSLLHSNGNTYLYWFLQKPGQSPQLLIYRMSNRASGVPDRFSGSGSGTDFTLKISRVEAEDVGVYYCMQHLEYPLTFGQGTKVEIK
notes: Humanized antibody from P-PR-C05H; also called Antibody No. 25; Anti-P-PR-C05H-v2
Consider B2, for which the “ratio” value in [1] was 35%; in [5], 15.5%; in [6] it was 11.2%. Moreover, the Kd in [2] and in assay [3] was under 1 pM each time. The figures for the koff in assay [2] and in assay [3] were 5.03e-07 s⁻¹ and 4.08e-07 s⁻¹, respectively. The kon in assay [2] worked out at 937000 M⁻¹ s⁻¹; in assay [3] it was 1.04e+06 M⁻¹ s⁻¹. In addition, the “Blocking percentage (%)” value in assay [4] was found to be 17.3%.

B3: P-PR-C07H-v (antibody, V domains shown)
VH: EVQLVQSGAEVKKPGSSVKVSCKASGYTFTNNWLAWIRQAPGQGLEWIGDIYPGGVYTNYNQKFQGRATLTADTSTSTAYMELSSLRSEDTAVYFCYYGDFWSAYWGQGTLVTVSS
VL: DIVMTQSPLSLPVTPGEPASISCRSSKSLLHSNGNTYLYWFLQKPGQSPQLLIYRMSNRASGVPDRFSGSGSGTDFTLKISRVEAEDVGVYYCMQHLEYPLTFGQGTKVEIK
notes: Humanized antibody from P-PR-C07H; also called Antibody No. 26; hP-PR-C07H-v
Regarding B3, the “ratio” value in assay [1] was determined as 13.4%; in [5] it was 49.8%; in assay [6] it was 52.7%. The Kd was 3940 pM in [2] and under 1 pM in [3]. For the same molecule, the figures for the koff in assay [2] and in [3] were 0.0032 s⁻¹ and 4.19e-07 s⁻¹, respectively. Besides, the kon in [2] was found to be 813000 M⁻¹ s⁻¹; in assay [3], 663000 M⁻¹ s⁻¹. Moreover, in assay [4], the “Blocking percentage (%)” value is 100%.

B4: HP-PR02H02 (antibody, V domains shown)
VH: EVMLVESGGGLVKPGGSLKLACAASGFTFSSYTMSWVRQTPEKRLEWVATISSGGSYTYYPDSVKGRFTISRDNAKNTLYLQLSSLKSEDTAMYYCTRDRYYSTTPDWYFDVWGAGTTLTVSS
VL: DIVITQSPATLSVTPGDSVSLSCRATQIIFNNLHWYQQKSHESPRLLITYTSQSISGIPSRFSGSGSGTDFTLTINSVETEDFGMYFCQQSNTWPRTFGGGTKLEIK
notes: also called Antibody No. 21
On to B4, for which the binding result in assay [7] is “no binding (tested: 10 µg/mL)”. Besides, the “absorbance at 450nm” value was found to be 0.076 in assay [8] and 0.097 in assay [9].

B5: HP-PR01B01 (antibody, V domains shown)
VH: EVHLVESGPDLVKPSQSLSLTCTVTGYSITSGYNWHWIRQFPGNKLEWMGYIHYSGSTKYDPSLKSRISFTRDTSRNQFFLQLNSVTTEDRATYYCARSEAGGYSWFAYWGQGTLVTVSA
VL: DIVMTQSPAIMSASPGEKVTMACSASSSVNYMHWYQQKSGTSPKRWIYDTSKLASGVPARFSGSGSGTSYSLTISSMEAEDAATYYCQQWSSNPLTFGAGTKLELK
notes: also called Antibody No. 23
For B5, the binding result in assay [7] is “no binding (tested: 10 µg/mL)”. For the same molecule, the “absorbance at 450nm” value in assay [8] was found to be 0.076; in [9], 0.077.

(Values after patent EP4703383A1 (Shenzhen Genuine Biomedical Technology Co., Ltd, dated 2026).)
